Test results published in PMC11846896, “Phage parasites targeting phage homologous recombinases provide antiviral immunity” (Nature Communications, 2025).

Columns and labels:
Stl2-Sak4_52A complex = biological target: T1, Stl2-Sak4_52A complex (Staphylococcus phage 52A, UniProt Q4ZAS5); test: cryo-EM structure of the complex ([…] Å); format: binding; conditions: 2 mM ATPγS, 20 mM Tris pH 7.6, 100 mM NaCl, 1 mM DTT, 37 °C 10 min, Stl2 1:1; site at Sak4_52A protomer interface (Lys41, Thr42, Tyr216 of one; Lys229, Arg231, His232 of the next)
T1 construct: both from E. coli BL21, mixed 1:1; with SaPI2 transcriptional repressor Stl (Staphylococcus aureus)

[1] = system: Stl2-ΔCTD (Staphylococcus aureus pathogenicity island SaPI2); test: EMSA; conditions: EMSA: 20 mM Tris-HCl pH 7.0, 100 mM NaCl, 5% glycerol, 50 ng/µl BSA, 1 ng/µl salmon sperm DNA, 5 mM DTT, 2 nM FAM-DNA, room temperature 30 min; Stl2 + 5 mM …
[2] = biological target: Sak80α, full-length, untagged, co-expressed with Stl2 from pETDuet-1 (phage 80α (Staphylococcus aureus phage)); test: cryo-EM structure; Stl2-Sak80α complex co-expressed from pETDuet-1 and co-purified, third elution peak of Superose 6, 1.5 mg/ml; D1 symmetry
[3] = biological target: Sak80αΔCTD (truncated Sak80α with its CTD removed) (phage 80α (Staphylococcus aureus phage)); test: cryo-EM structure; Sak80αΔCTD at 1.5 mg/ml in 20 mM Tris-HCl pH 7.6, 100 mM NaCl, 1 mM DTT; C18 symmetry
[4] = biological target: Stl2 (SaPI2-encoded transcriptional repressor Stl), wild type, C-terminally histidine tagged (Staphylococcus aureus (SaPI2)); test: mass photometry; single proteins; diluted to 50 to 100 nM in 20 mM Tris pH 8.0, 0.5 mM EDTA, 200 mM NaCl, 2 mM DTT; self-association (dimer and large oligomers)

T1 sequence (A0FIL5 entry or part of it): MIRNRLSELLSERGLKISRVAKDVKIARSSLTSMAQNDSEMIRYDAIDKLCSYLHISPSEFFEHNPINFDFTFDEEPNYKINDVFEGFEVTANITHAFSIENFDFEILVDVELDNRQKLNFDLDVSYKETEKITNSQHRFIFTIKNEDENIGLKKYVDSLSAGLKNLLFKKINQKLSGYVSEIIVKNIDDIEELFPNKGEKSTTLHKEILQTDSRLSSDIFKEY
T1 sequence (Q4ZAS5 entry or part of it): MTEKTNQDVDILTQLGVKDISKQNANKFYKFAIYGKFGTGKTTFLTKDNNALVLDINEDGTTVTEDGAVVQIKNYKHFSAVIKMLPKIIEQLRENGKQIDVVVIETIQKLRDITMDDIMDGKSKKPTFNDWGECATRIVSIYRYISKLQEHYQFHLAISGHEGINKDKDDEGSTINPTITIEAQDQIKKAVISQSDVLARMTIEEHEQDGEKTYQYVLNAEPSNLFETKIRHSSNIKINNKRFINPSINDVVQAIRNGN

With Nc1ncnc2c1ncn2[C@@H]1O[C@H](COP(=O)(O)OP(=O)(O)OP(O)(O)=S)[C@@H](O)[C@H]1O [ATPγS] the “cryo-EM structure of the complex (3.35 Å)” value (Stl2-Sak4_52A complex) was “The nucleotide ATPγS is boxed and zoomed in on the left-hand side”.
SaPI2 IGR (stl-str intergenic region) showed a binding signal (fold reduction in affinity vs wild type) [1] of 30.
“Sak80α, full-length, untagged, co-expressed with Stl2 from pETDuet-1 (natural protein)” showed a stoichiometry N [2] of 17.
“Sak80αΔCTD (truncated Sak80α with its CTD removed) (domain or fragment)” gave a stoichiometry N [3] of 18.
“Stl2 (SaPI2-encoded transcriptional repressor Stl), wild type, C-terminally histidine tagged (natural protein)” showed a stoichiometry N [4] of 2.
